Measured values published in patent US5861377A, “Antistasin type serine protease inhibitors” (Novartis AG, priority 1994, dated 1999).

Key:
[1] = molecular target: chymotrypsin (Bos taurus, UniProt P00766); test: Inhibitory activity during purification: amidolytic activity of chymotrypsin; assay type: biochemical; conditions: chymotrypsin inhibition; fraction of the isolation step
From the text: (§1) One inhibition unit (IU) is defined as the amount of inhibitor which reduces the substrate hydrolysis by 1 mmol per min.

[2] = molecular target: T1, trypsin (Bos taurus, UniProt P00760); test: Inhibitory activity during purification: amidolytic activity of trypsin; assay type: biochemical; conditions: trypsin inhibition; fraction of the isolation step
T1 sequence (P00760 24-246): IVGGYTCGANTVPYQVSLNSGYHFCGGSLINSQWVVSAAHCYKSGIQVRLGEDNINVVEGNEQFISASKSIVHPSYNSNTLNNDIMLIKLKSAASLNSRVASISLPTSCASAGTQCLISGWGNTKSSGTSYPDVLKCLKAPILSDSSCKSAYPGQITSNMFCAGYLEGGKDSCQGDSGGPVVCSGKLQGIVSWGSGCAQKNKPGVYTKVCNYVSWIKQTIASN
Procedure: During the purification procedure inhibitory activity is assayed by measuring the inhibition of the amidolytic activities of trypsin and chymotrypsin. Samples are incubated with trypsin (225 nM) in 50 mM Tris/HCl (pH 7.8), 0.1% (mass/vol) Triton X-100, for 12 min at 25° C. The assay is started by addition of the substrate benzoyl-L-argininep-nitroanilide (0.4 mM, final concentration). The released nitroaniline is monitored photometrically at 405 nm for 3.5 min using an UVIKON 930® photometer (Kontron; Eching, Germany).
as §1

[3] = tested on: blood coagulation cascade; test: Blood coagulation cascade in vitro (general statement)
Procedure: (§2) To determine whether hirustasin inhibits the blood coagulation in vitro, its effect on the prothrombin time and the partial thromboplastin time is measured using an Amelung KC10 coagulometer (Lemgo, Germany) and the reagent sets from Behringwerke AG (Marburg, Germany) according to the guidelines of the manufacturers.

[4] = molecular target: Factor Xa (Homo sapiens, UniProt P00742); test: Inhibition of amidolytic activity of serine proteinases: factor Xa; assay type: biochemical; set-up: effect on proteinase activity: dose or concentration left out as unconfirmed
Procedure: (§3) To determine the specificity of hirustasin, its effect on the amidolytic activity of various serine proteinases (see Tab. 3) is determined. Therefore, proteinases are incubated with the inhibitor […] for 15 and for 30 min, and the residual enzyme activities are measured after addition of a suitable substrate. Equilibrium dissociation constants (Ki) for the complexes of hirustasin with individual proteases are determined essentially as described by Bieth (Bull. Europ. Physopat. Resp. (1980), 16, 183-195). Briefly, increasing concentrations of the inhibitor are incubated with a constant concentration of the enzyme; the time necessary to reach equilibration of the enzyme-inhibitor complex is determined for each protease in preliminary experiments. Substrate is then added and the residual enzyme activity measured. Apparent Ki -values are calculated by fitting the steady state velocities to the equation for tight binding inhibitors (Morrison, Biochem. Biophys. Acta (1969), 185, 269-286) using non-linear regression analysis.

[5] = tested on: prothrombin time; test: In vitro blood coagulation: prothrombin time (Quick)
Procedure: as §2

[6] = molecular target: Pancreatic elastase (Sus scrofa, UniProt P00772); test: Inhibition of amidolytic activity of serine proteinases: pancreatic elastase; assay type: biochemical; conditions: porcine pancreatic elastase; inhibitor 1.3 mM
Procedure: (§4) To determine the specificity of hirustasin, its effect on the amidolytic activity of various serine proteinases (see Tab. 3) is determined. Therefore, proteinases are incubated with the inhibitor (1.3 mM) for 15 and for 30 min, and the residual enzyme activities are measured after addition of a suitable substrate. Equilibrium dissociation constants (Ki) for the complexes of hirustasin with individual proteases are determined essentially as described by Bieth (Bull. Europ. Physopat. Resp. (1980), 16, 183-195). Briefly, increasing concentrations of the inhibitor are incubated with a constant concentration of the enzyme; the time necessary to reach equilibration of the enzyme-inhibitor complex is determined for each protease in preliminary experiments. Substrate is then added and the residual enzyme activity measured. Apparent Ki -values are calculated by fitting the steady state velocities to the equation for tight binding inhibitors (Morrison, Biochem. Biophys. Acta (1969), 185, 269-286) using non-linear regression analysis.

[7] = molecular target: Chymase; test: Inhibition of amidolytic activity of serine proteinases: chymase; assay type: biochemical; conditions: porcine chymase; inhibitor 1.3 mM
Procedure: as §4

[8] = tested on: partial thromboplastin time; test: In vitro blood coagulation: partial thromboplastin time
Procedure: as §2

[9] = molecular target: T2, Thrombin (Homo sapiens, UniProt P00734); test: Inhibition of amidolytic activity of serine proteinases: thrombin; assay type: biochemical; set-up: effect on proteinase activity: dose or concentration left out as unconfirmed
T2 construct: the other proteinases tested including human α-thrombin and factor Xa
Procedure: as §3

[10] = molecular target: Urokinase (Homo sapiens, UniProt P00749); test: Inhibition of amidolytic activity of serine proteinases: urokinase; assay type: biochemical; conditions: inhibitor 1.3 mM
Procedure: as §4

[11] = molecular target: T3, Leukocyte elastase (Homo sapiens, UniProt P08246); test: Inhibition of amidolytic activity of serine proteinases: leukocyte elastase; assay type: biochemical; conditions: inhibitor 1.3 mM
T3 sequence (P08246 30-267): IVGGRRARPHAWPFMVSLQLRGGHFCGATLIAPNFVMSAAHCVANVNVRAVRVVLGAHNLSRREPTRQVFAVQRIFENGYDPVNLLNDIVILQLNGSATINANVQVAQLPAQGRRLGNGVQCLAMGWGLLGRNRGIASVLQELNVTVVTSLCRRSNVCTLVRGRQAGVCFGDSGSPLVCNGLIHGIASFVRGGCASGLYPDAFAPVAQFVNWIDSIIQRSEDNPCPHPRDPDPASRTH
Procedure: as §4

[12] = molecular target: Plasma kallikrein (Homo sapiens, UniProt P03952); test: Inhibition of amidolytic activity of serine proteinases: plasma kallikrein; assay type: biochemical; conditions: inhibitor 1.3 mM
Procedure: as §4

[13] = molecular target: Subtilisin; test: Inhibition of amidolytic activity of serine proteinases: subtilisin; assay type: biochemical; conditions: Bact. subt. subtilisin; inhibitor 1.3 mM
Procedure: as §4

Factor Xa, sequence (P00742 235-488 limits assumed): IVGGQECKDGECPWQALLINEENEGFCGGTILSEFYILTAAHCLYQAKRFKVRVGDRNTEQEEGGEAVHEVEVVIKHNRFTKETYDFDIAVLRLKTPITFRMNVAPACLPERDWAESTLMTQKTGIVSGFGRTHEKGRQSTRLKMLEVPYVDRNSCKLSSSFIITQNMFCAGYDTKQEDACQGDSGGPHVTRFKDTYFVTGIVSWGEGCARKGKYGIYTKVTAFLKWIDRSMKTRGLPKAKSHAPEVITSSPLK
Factor Xa, sequence (P00742 41-179 partner limits assumed): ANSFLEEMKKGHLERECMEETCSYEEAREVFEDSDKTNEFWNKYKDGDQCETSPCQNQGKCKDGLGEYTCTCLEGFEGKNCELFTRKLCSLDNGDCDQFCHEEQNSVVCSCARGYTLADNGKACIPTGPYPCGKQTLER
Pancreatic elastase, sequence (P00772 27-266): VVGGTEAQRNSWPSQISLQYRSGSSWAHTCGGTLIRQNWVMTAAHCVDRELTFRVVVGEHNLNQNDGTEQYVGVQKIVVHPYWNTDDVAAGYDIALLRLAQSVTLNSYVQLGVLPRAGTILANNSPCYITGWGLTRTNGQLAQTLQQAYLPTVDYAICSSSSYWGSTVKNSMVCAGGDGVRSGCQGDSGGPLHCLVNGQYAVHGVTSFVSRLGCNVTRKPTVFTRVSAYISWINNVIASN
Plasma kallikrein, sequence (P03952 391-638 limits assumed): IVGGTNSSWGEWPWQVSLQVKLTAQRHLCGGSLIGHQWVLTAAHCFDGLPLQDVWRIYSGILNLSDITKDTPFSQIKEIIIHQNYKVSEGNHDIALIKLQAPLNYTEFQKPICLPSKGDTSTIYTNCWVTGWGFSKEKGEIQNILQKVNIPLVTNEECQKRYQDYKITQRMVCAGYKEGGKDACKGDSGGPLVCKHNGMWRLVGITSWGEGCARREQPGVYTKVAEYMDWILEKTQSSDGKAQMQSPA
Plasma kallikrein, sequence (P03952 20-390 partner limits assumed): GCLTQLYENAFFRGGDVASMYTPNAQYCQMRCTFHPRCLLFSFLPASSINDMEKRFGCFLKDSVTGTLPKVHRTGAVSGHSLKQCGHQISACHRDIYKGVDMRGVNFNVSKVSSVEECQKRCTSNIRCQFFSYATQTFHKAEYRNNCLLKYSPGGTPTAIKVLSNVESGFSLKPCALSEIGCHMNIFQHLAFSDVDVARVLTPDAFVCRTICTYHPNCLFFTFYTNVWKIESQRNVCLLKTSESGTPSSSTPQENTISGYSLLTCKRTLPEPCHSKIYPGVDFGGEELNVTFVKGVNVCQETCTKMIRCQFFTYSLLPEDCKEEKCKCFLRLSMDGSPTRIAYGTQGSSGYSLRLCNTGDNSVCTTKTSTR

## Mono S ®: pooled Mono S fractions, the finally isolated hirustasin (TQGNTCGGETCSAAQVCLKGKCVCNEVHCRIRCKYGLKKDENGCEYPCSCAKASQ; UniProt P80302 1-55, looked up)
[1]
  Chymotrypsin SA [IU/mg] (specific activity): 0.15 IU/mg
[2]
  Trypsin SA [IU/mg] (specific activity): 2.7 IU/mg

## Hirustasin: polypeptide of SEQ ID NO:1, antistasin-type serine proteinase inhibitor isolated from the medical leech Hirudo medicinalis (TQGNTCGGETCSAAQVCLKGKCVCNEVHCRIRCKYGLKKDENGCEYPCSCAKASQ)
[3]
  effect on blood coagulation cascade in vitro: neither affects
[4]; factor Xa, highest concentration used
  effect on proteinase activity: no effect
[4]; human factor Xa, inhibitor 1.3 mM
  Ki: > 1300 nM
[4]; isolated factor Xa
  effect on catalytic activity of isolated factor Xa: neither affects
[5]; concentration of 1.3 mM
  effect on prothrombin time: no significant effect
[5]; hirustasin 1.3 mM, buffer control 79%
  Quick: 80%
[6]
  Ki: > 1300 nM
[7]
  Ki: > 1300 nM
[8]; concentration of 1.3 mM
  effect on partial thromboplastin time: no significant effect
[8]; hirustasin 1.3 mM, buffer control 47.3 s
  Partial Thromboplastin Time: 47.9 s
[9]; human thrombin, inhibitor 1.3 mM
  Ki: > 1300 nM
[9]; human α-thrombin, highest concentration used
  effect on proteinase activity: no effect
[10]
  Ki: > 1300 nM
[11]
  Ki: > 1300 nM
[12]
  Ki: > 1300 nM
[13]
  Ki: > 1300 nM
